Results on two molecules are retold here after patent publication US20230071609A1 (Genentech, published 2023).

Test [1] concerns the target T1, native full length untagged APOL1-G0 (iAPOL1-CHO, construct a) (human, UniProt O14791 28-398).
T1 construct: Also used as CHO lysate in western blots; also called iAPOL1-G0; WT iAPOL1-G0
T1 sequence: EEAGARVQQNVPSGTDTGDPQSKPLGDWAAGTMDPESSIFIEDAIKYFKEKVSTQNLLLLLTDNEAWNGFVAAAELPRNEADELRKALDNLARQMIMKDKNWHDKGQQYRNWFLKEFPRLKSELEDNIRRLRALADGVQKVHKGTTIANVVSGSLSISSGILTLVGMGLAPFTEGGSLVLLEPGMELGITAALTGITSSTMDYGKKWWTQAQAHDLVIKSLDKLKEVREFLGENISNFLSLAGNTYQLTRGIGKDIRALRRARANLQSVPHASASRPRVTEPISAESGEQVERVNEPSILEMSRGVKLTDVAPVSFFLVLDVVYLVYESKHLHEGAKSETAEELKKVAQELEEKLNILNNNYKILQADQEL
Kind of test: immunofluorescence, PFA-fixed permeabilized iAPOL1-CHO cells. The source says: APOL2 is shown stained with 3.6D12 (a mAb to the N-terminal pore-forming domain (PFD)), although similar results were obtained with the other 43 APOL2-cross reactors (all to the PFD, data not shown). […] APOL1 is shown stained with PFD mAb 3.7D6, membrane-addressing domain (MAD) mAb 3.3A8, or SRA-interacting domain (SRA-ID) mAb 3.1C1, each detected with Alexa488 anti-mouse (see Example 1 below for epitope mapping), although similar results were obtained with all the other APOL1-specific antibodies to all three domains (data not shown). The reticular ER pattern persists in digitonin (plasma membrane only)-permeabilized cells for APOL2, but not APOL1, indicating APOL2 is on the cytoplasmic face of the ER, while APOL1 is inside. The nuclear membrane signal for APOL1 with digitonin is also seen without detergent in some cells since PFA semi-permeabilizes the nuclear membrane (data not shown). With digitonin, some of the more sensitive antibodies, including the PFD (3.7D6) and SRA-ID (3.1C1) antibodies shown here (but not MAD antibody 3.3A8), additionally detected APOL1 on the plasma membrane (arrowhead), which is topologically equivalent to the ER lumen.
Cells were plated on LabTekII (Nalge Nunc 154534) slides and fixed at 70-100% confluency. For mAb screening, cells were fixed/permeabilized for 5 min in −20° C. methanol (EMD MX0485-6). […]

Test [2] addresses T2, endogenous APOL2 in human podocytes (human, UniProt Q9BQE5 1-337).
T2 construct: In podocyte lysates (western blot) or fixed, permeabilized podocytes; also called 36 kDa APOL2 band
T2 sequence (looked up): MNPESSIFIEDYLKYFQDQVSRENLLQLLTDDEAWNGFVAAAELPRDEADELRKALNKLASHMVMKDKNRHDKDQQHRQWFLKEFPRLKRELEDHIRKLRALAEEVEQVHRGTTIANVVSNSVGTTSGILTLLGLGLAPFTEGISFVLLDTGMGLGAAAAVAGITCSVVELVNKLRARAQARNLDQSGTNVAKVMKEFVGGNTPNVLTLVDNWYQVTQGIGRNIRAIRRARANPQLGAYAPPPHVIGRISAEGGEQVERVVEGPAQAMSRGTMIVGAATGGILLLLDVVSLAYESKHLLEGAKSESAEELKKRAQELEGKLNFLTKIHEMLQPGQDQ
The test can be described thus: western blot of WT and APOL1 KO podocyte lysates. On the procedure: The results corroborate the IF cross-reactivities, except for APOL4 cross-reactivity, which appears to be conformationally sensitive. The 3.6D12 antibody continues to recognize APOL2 in the APOL1 KO podocytes (generated as described in Example 1). Note the 4.17A5 western is shown at a longer exposure than the others.
Following three TBST washes, anti-mouse (GE Healthcare NA931V, 1:3000) or anti-rabbit HRP (Jackson 711-036-152, 1:8000) was added as secondary antibody. After 1 h, membranes were washed and protein detected using ECL prime (Amersham RPN2232) exposed to MR film (Kodak). Anti-actin HRP-conjugated antibody (clone 13E5, Cell Signaling Technologies 5125S at 1:5000) or calnexin (Abcam Ab22595 at 1:1000) was used as a loading control. For peptide mapping, 2 μl of 1 mM peptides in DMSO were boiled in 5× sample buffer and loaded on 10% Tris-Glycine gel and run using MES buffer. Cell pellets of Sf9 lysates were lysed in native RIPA (NP-40) lysis buffer and run on 10% Tris-Glycine gels.

B1: antibody 3.1C1 (antibody, V domains shown)
VH: QVQLQQSGPELVKPGASVRISCKASGYTFTNYFIHWVKQRPGQGLEWIGWINPGNLNTKYTEEFKGKATLTADKSSSTAYIQLNSLTSEDSAVYFCVNGNPFVYWGQGTLVTVSA
VL: DIVMTQSPSSLTVIAGEKVTLNCKSSQSLLNSGNQKKYLTWLQQKPGQPPKLLIYWTSTRDSGVPDRFTGSGSGTDFTLTISSVQAEDLAVYYCQNDYSYPLTFGAGTKLEIKR
notes: Mouse mAb, cloned as murine IgG2a LALAPG; not written separately; also called SRA-ID mAb 3.1C1
Turning to B1, the binding result in test [1] is given as “binds”.

B2: antibody 3.6D12 (antibody, V domains shown)
VH: EVMLVESGGGLVRPGGSLKLSCTASGFTFSRCAMSWVRQTPEKRLEWVSAISRDSTYTYYSDSVKGRFTVSRDNAKNTLYLQMSSLRSEDTAMYYCARQIDDYYVDALDYWGQGTSVTVSS
VL: DVQITQSPSYLAASPGETITINCRASKIISKYLAWYQEKPGKTIKLLIYSGFTLQSGIPSRFSGSGSGTDFTLTISSLEPEDFAMYYCQQHNEYPLTFGAGTKLEIKR
notes: Mouse mAb (Method #3), cloned as murine IgG2a LALAPG; Early screens used hybridoma-purified antibody; also called mAb 3.6D12
Take B2: in test [2], the binding result was “binds”.
